Measurements from the RNAGym collection of RNA variant scans (doi:10.1073/pnas.2313332121).
Fewer inactive variants are shown than the library holds.

B1: TPR 5TU (parent)
chain: GGAUCUUCUCGAUCUAACAAAAAAGACAAAUCUGCCACAAAGCUUGAGAGCAUCUUCGGAUGCAGAGGCGGCAGCCUUCGGUGGCGCGAUAGCGCCAACGUUCUCAACUAUGACACGCAAAACGCGUGCUCCGUUGAAUGGAGUUUAUCAUG

Variants of: B1
Assay: polymerase ribozyme fitness, log enrichment relative to wild type (log ratio); higher = more active; in vitro selection for triplet polymerase activity
Method in brief: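 Each subunit of a heterodimeric triplet polymerase ribozyme was represented by a PCR-built, transcribed mutant library that underwent triplicate single-round in vitro selection with frozen incubation at −7 °C. Extended constructs were recovered by gel excision, streptavidin-bead capture and RT-PCR, and Illumina sequencing of input and output libraries kept genotypes with ≥10 input reads and ≥1 read per output. Fitness is the logarithm of genotype enrichment relative to wild-type enrichment, from inverse-variance-weighted replicate averages, with a logarithm base of 2.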

| Variant | polymerase ribozyme fitness (log ratio) |
| --- | --- |
| U9G A19C U55A | ≤ -4.2 |
| U9C A17U A30G G42C C51A C87U | ≤ -4.2 |
| C8U C85G | -3.44 |
| U9A A16G C54U C75U C76A A120U | ≤ -4.2 |
| C8G U31A G34U C57G C93G | ≤ -4.2 |
| C8U A22C A26C G50C C85A C116U C118A | ≤ -4.2 |
| C8U A24U A30U U90A G92C | ≤ -4.2 |
| U9C C35G A39U C103G | ≤ -4.2 |
| C8U C18G C35A U53A G58C | ≤ -4.2 |
| U9A C36A C72G G92A C129A A137U | ≤ -4.2 |
| C8U A12G A28U G74A G81A C99U | -4.18 |
| U9G U33G G59A G140U | ≤ -4.2 |
| U9G A29C C32G G58C C76A C79A C118G G141C G143A | ≤ -4.2 |
| U9G A47C C57A A66C C87A A89U A120U A121U C123A C125U U144A | ≤ -4.2 |
| U9G C32G G71A | ≤ -4.2 |
| U9C A22G A23C G25C G83C | ≤ -4.2 |
| C8U C87U | -2.59 |
| U9G A23U G58A G59U C79A G81U C85A A120C U139C | ≤ -4.2 |
| U9C G25C U56A C93U C99G | ≤ -4.2 |
| U9G C35U A52C U61A C87A U101C C125A | ≤ -4.2 |
| C8U A73U | -3.97 |

| Variant | polymerase ribozyme fitness (log ratio) |
| --- | --- |
| U9A C14A A23U A30C C36A C95U A110U | ≤ -4.2 |
| C8U A28U U53A G67A C69U G88C A89U A98G A138C | ≤ -4.2 |
| U9C A16G U44G A49G A64G C105G G124A | ≤ -4.2 |
| U9G G86A A138G | ≤ -4.2 |
| C8U A37C C93A U151G | ≤ -4.2 |
| U9A C32A U55G G88U U109A | ≤ -4.2 |
| C8G G50C U55C G100A A115G U127C | ≤ -4.2 |
| C8U A16C U53A C54A G71C G141C U148C C149U | ≤ -4.2 |
| U9G A17C A52C G84A C118A | ≤ -4.2 |
| C8G C43U G88C C93A U146G | ≤ -4.2 |
| U9C A22C C96G C99G G128U | ≤ -4.2 |
| C8G U53C G58C C79U A89G U139C | ≤ -4.2 |
| C8U C96G | -2.63 |
| C8U C96U | -2.69 |
| U9C A12C C57U C63U G74C A119G U146G | ≤ -4.2 |
| C8U U9G G70A C76A C87G A89C | ≤ -4.2 |
| C8G G71A G74A C79U C87A C116A | ≤ -4.2 |
| C8U A41C U44G G81C G92U C93G | ≤ -4.2 |
| C8U C10G A29U C85U C116U | ≤ -4.2 |
| C8U A16U A49C A73C C85U C108G | ≤ -4.2 |
| C8U A17C A28G C35U C76A C96U U144G | -3.75 |

| Variant | polymerase ribozyme fitness (log ratio) |
| --- | --- |
| U9G C85A C103A C118G U134A | ≤ -4.2 |
| U9A C32G C54A G86C U109G G136A | ≤ -4.2 |
| U9C C14G | ≤ -4.2 |
| C8U G83C | -2.8 |
| C8U G83U | -3.5 |
| C8U G83A | -2.94 |
| U9A U55G U78G G143C | ≤ -4.2 |
| U9C A30G A66C G84A A150C | ≤ -4.2 |
| U9G C35A A39G C87A C125U G143A U151A | -3.88 |
| U9A U13G G42U U61A A91U A106G A142C | ≤ -4.2 |
| C8U A12G A52G A98U | -2.99 |
| C8U A20U G46C G59U A60C C63U G83U C87U A97U U145A | ≤ -4.2 |
| U9C A17U A89G A122G | ≤ -4.2 |
| U9C U15G C93A | ≤ -4.2 |
| U9C A47U | -3.94 |
| C8U U33A A37C G50A A60U C72A G86A U90A A138G U151G | ≤ -4.2 |
| C10A A12G A22G U56A C85G | ≤ -4.2 |
| C8U C27A A29U A66U G67A A120U U134A | ≤ -4.2 |
| U9A U31G G58U A73U C123U U135A | ≤ -4.2 |
| C10A A21U G84A A97U A113G | ≤ -4.2 |
| U9G G74A G84A A107G | ≤ -4.2 |

| Variant | polymerase ribozyme fitness (log ratio) |
| --- | --- |
| U9C U53A G58U A60C A66C A147C | ≤ -4.2 |
| U9G C10G A17G A22G A23U G50A A73G | ≤ -4.2 |
| C8G C116G | -3.15 |
| C8U A47G | -3.73 |
| U9G A40C | -3.48 |
| C8U A12G A28C C38U C57G C95U | ≤ -4.2 |
| U9G A29U U53G U55G C93A A137C | ≤ -4.2 |
| U9G U145C | -3.95 |
| U9C A28C C36A C87U C116U | ≤ -4.2 |
| C8U G88U C93U | -4.14 |
| C8U A24C C36U G48A C95G C105U U145A | ≤ -4.2 |
| C8U A20G U33A U56A C95A C131A | ≤ -4.2 |
| U9A A12C A23G G42C C51A A120C A121U | ≤ -4.2 |
| U9G A16C A30C G34A G58U C93G C105A A110G C118U C149U | -4.17 |
| U9G A17U G94A | ≤ -4.2 |
| U9A A24U A37C G42C G50C G58A C85G A91C U148A | ≤ -4.2 |
| C8U A66C C93U G124A | ≤ -4.2 |
| C8G U15G A21G G83U A91G C105U U144C U148A | ≤ -4.2 |
| U9G C10G C87G C93U G124C | ≤ -4.2 |
| C8G C57U G59A C69G G88U C96G A120U | ≤ -4.2 |
